{"source": "patent US20250161440A1", "about": "(ABCENTRA, published 2025)", "target": "oxidized LDL (oxLDL) (UniProt P04114 28-4563, limits assumed, oxidized); the kind of oxidation used in the in vitro assay is not stated (the filing says in general that oxidized LDL may carry malondialdehyde groups on lysines and histidines, or be oxidized by …)", "sequence (P04114 28-4563 limits assumed)": "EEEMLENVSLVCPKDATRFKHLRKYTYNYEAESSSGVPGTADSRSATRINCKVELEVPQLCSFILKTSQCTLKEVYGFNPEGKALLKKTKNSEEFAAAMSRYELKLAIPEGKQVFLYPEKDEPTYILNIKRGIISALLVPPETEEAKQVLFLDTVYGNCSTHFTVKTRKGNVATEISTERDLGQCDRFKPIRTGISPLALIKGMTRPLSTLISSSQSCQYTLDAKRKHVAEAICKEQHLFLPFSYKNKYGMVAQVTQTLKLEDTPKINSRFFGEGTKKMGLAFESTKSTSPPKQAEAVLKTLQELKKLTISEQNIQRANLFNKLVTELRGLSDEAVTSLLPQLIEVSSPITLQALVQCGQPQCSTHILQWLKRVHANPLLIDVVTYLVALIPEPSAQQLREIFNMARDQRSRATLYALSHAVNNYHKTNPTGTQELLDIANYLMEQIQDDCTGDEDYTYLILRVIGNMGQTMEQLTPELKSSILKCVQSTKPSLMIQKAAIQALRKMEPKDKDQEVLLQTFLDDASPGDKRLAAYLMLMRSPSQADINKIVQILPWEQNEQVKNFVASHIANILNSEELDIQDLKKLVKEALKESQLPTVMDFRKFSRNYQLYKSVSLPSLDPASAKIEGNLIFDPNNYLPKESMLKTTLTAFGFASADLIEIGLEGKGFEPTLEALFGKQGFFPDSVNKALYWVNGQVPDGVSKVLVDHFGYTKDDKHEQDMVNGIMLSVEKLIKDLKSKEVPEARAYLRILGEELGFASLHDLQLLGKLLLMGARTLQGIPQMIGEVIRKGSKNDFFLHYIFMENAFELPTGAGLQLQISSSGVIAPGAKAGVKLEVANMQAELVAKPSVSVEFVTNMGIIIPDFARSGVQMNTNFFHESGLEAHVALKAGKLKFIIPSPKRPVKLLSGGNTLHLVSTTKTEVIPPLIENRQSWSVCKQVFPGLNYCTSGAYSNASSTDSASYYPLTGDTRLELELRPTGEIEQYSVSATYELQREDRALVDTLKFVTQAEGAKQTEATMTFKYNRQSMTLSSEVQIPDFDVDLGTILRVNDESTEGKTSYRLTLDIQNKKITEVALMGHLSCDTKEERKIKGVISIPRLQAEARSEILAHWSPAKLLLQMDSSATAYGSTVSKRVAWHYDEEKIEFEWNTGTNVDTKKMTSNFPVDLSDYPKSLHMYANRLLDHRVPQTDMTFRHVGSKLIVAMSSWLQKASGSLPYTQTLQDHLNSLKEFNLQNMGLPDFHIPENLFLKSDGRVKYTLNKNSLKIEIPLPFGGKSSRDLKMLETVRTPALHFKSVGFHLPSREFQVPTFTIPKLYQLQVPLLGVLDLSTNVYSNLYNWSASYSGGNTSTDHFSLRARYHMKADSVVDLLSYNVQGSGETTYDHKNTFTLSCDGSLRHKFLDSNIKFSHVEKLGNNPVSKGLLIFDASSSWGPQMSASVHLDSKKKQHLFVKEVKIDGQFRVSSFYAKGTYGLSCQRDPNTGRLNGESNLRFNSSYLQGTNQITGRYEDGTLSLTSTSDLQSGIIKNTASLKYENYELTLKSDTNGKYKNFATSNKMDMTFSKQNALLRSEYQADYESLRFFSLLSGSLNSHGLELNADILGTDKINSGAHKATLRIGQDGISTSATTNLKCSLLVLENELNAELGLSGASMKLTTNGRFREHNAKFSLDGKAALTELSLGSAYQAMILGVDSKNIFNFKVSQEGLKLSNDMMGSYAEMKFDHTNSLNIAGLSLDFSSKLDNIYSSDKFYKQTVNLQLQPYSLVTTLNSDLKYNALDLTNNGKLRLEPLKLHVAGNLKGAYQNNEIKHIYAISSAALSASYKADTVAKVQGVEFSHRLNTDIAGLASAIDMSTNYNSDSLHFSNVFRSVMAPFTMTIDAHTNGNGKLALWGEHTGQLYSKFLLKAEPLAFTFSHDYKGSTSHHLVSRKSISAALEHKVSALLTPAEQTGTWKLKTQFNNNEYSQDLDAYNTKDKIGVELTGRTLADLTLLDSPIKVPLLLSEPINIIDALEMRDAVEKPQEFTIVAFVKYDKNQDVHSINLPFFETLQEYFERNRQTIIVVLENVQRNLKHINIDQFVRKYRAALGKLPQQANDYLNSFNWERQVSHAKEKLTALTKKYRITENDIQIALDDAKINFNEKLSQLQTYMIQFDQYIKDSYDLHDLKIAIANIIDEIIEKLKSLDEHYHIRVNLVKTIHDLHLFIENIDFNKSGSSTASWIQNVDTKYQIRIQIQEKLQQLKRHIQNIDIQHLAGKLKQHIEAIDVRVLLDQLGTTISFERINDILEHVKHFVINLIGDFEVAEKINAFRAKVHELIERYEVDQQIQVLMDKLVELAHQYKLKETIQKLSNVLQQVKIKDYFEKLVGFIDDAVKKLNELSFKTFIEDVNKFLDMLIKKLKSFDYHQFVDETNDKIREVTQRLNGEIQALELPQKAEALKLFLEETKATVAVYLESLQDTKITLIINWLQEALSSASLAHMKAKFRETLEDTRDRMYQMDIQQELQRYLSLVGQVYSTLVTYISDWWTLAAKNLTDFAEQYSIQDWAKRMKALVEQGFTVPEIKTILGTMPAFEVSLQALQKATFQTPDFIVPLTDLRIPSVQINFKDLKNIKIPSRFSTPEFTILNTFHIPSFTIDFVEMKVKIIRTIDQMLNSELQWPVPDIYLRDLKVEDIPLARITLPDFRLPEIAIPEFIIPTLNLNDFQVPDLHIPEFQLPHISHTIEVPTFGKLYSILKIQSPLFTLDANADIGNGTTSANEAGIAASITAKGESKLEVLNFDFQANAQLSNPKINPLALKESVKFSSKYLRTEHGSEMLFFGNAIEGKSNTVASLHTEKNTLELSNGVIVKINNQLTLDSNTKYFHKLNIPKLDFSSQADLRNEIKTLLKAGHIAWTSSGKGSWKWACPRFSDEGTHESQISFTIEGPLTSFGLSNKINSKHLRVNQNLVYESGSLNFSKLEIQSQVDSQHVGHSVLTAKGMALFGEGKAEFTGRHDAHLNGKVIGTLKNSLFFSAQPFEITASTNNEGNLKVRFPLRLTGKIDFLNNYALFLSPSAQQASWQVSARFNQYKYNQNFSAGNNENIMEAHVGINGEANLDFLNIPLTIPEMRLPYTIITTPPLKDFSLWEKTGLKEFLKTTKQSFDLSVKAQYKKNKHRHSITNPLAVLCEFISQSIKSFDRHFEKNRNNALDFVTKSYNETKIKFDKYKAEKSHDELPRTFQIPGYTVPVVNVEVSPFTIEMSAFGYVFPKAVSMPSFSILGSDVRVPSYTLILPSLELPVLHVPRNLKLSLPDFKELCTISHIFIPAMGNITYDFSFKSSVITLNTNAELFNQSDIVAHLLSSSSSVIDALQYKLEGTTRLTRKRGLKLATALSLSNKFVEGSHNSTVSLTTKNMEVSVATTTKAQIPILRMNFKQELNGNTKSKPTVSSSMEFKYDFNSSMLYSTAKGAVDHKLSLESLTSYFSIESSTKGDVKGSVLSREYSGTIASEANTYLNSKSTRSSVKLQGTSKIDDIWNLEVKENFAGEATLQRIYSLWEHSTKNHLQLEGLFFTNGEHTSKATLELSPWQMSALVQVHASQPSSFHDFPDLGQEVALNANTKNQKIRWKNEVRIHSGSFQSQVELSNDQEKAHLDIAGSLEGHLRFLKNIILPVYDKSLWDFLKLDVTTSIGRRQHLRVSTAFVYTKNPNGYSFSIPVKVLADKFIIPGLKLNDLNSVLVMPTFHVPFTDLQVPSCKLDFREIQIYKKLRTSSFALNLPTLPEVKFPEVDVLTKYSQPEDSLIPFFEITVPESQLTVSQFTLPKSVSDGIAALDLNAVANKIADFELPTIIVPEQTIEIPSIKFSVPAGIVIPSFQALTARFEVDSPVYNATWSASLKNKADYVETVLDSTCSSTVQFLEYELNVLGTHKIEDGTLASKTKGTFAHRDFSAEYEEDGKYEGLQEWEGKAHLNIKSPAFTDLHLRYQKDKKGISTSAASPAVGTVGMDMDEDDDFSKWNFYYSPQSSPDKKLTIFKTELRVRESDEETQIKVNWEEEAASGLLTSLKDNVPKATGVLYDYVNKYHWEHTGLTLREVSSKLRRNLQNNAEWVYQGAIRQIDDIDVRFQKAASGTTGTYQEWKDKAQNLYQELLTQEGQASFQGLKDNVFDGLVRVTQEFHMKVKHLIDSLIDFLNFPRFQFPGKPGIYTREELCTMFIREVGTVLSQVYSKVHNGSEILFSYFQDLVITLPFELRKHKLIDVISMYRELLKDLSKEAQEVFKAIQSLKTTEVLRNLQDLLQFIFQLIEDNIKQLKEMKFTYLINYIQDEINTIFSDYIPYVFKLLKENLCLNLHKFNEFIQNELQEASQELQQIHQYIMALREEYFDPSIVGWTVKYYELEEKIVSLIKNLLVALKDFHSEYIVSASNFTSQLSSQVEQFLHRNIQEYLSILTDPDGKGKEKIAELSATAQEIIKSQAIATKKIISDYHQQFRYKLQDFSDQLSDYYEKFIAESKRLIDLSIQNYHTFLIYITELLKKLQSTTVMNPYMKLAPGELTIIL", "assay": "cell-based or functional assay"}
{"binder": "orticumab (antibody, human IgG1, lambda, V domains shown) VH: EVQLLESGGGLVQPGGSLRLSCAASGFTFSNAWMSWVRQAPGKGLEWVSSISVGGHRTYYADSVKGRSTISRDNSKNTLYLQMNSLRAEDTAVYYCARIRVGPSGGAFDYWGQGTLVTVSS VL: QSVLTQPPSASGTPGQRVTISCSGSNTNIGKNYVSWYQQLPGTAPKLLIYANSNRPSGVPDRFSGSKSGTSASLAISGLRSEDEADYYCASWDASLNGWVFGGGTKLTVLG", "values": [{"measurement": "IC50 for MCP-1 inhibition", "value": "~10", "unit": "nM"}]}
